Laboratory results reported in US20200199216A1 (KINDRED BIOSCIENCES, published 2020).

Key:
[1] = target: T1, canine IL17A (as used at 1 nM in the H1080 cell assay) (canine); assay: cell-based or functional assay
T1 chain: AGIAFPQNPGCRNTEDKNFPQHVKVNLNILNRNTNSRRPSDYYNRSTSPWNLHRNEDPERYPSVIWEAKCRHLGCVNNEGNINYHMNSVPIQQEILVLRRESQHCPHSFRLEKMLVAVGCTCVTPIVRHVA

canine IL17F-polyHis [2] = target: T2, canine IL17F-polyHis (canine, biotinylated in the biosensor assay); assay: Western blot: SDS-PAGE, PVDF, goat anti-mouse IgG-HRP
T2 construct: also called IL17F homodimer; not shown: poly-His tag on the C-terminal
T2 chain: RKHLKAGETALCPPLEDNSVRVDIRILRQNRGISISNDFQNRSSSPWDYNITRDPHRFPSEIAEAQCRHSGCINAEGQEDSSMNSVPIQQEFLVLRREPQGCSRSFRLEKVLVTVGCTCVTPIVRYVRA
Description: Canine IL17A-hFc, feline IL17A-polyHis, equine IL17A-polyHis, and canine IL17F-polyHis (0.6 μg) were each separated by SDS-PAGE and the proteins transferred to PVDF membranes. The blots were probed using Clone A, C, D, or E antibody followed by goat anti-mouse IgG-HRP. In this Western analysis, Clone A, C, and E antibodies immunoreacted to canine and equine IL17A, but not to feline IL17A or canine IL17F. Clone D antibody immunoreacted to canine, feline, and equine IL17A, but not to canine IL17F.

canine IL17F-polyHis [3] = target: T2, canine IL17F-polyHis; assay: BLI (Octet); biotinylated canine IL17F-polyHis on streptavidin sensors, antibody 0-124 nM, 1:1 model
Description: The binding analysis was performed using a biosensor Octet as follows. Briefly, canine IL17F-polyHis was biotinylated using EZ-Link NHS-LC-biotin (Catalog No. 21336, Thermo Scientific). Free, unreacted biotin was removed from biotinylated IL17F-polyHis by dialysis. Biotinylated canine IL17F was captured on streptavidin sensor tips (Catalog No. 18-509, ForteBio). The association of different concentrations (0 nM, 2 nM, 10.1 nM, 21.3 nM, 43.3 nM, 86.7 nM, 124 nM) of the caninized Clone C antibody and canine IL17F-polyHis was monitored for ninety seconds. Dissociation was monitored for 600 seconds. A buffer only blank curve was subtracted to correct for any drift. The data were fit to a 1:1 binding model using ForteBio™ data analysis software to determine the kₒₙ, koff, and the Kd. The buffer for dilutions and all binding steps was: 20 mM phosphate, 150 mM NaCl, pH 7.2.

canine IL17A-polyHis = target: T3, canine IL17A-polyHis (canine, biotinylated (EZ-Link NHS-LC-biotin) in the biosensor assays); assay: BLI (Octet); biotinylated canine IL17A-polyHis on streptavidin sensors, antibody 0-220 nM, 1:1 model
T3 construct: also called biotinylated canine IL17A-polyHis; not shown: poly-His tag on the C-terminal
T3 chain: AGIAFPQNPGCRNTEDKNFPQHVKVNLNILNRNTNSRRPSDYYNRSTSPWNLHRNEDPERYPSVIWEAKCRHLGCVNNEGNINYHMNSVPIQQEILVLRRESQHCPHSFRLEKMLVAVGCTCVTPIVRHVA
Description: The binding analysis was performed using a Biosensor Octet as follows. Briefly, canine IL17A-polyHis, which was expressed and purified from CHO-S cells, was biotinylated using EZ-Link NHS-LC-biotin (Catalog No. 21336, Thermo Scientific). Free, unreacted biotin was removed from biotinylated IL17A by dialysis. Biotinylated canine IL17A was captured on streptavidin sensor tips (Catalog No. 18-509, ForteBio). The association of different concentrations (0 nM, 18.33 nM, 45.87 nM, 110 nM, 220 nM) of hybridoma Clone C or caninized Clone C antibody to canine IL17A was monitored for 90 seconds. Dissociation was monitored for 600 seconds. A buffer only blank curve was subtracted to correct for any drift. The data were fit to a 1:1 binding model using ForteBio™ data analysis software to determine the kₒₙ, koff, and the Kd. The buffer for dilutions and all binding steps was: 20 mM phosphate, 150 mM NaCl, pH 7.2.

[4] = target: T1, canine IL17A (as used at 1 nM in the …); assay: cell-based or functional assay
[5] = target: T4, canine IL4 (biotinylated) (canine, UniProt O77762 25-132, biotinylated); assay: BLI capture step; biotinylated canine IL4 on streptavidin sensor tips, fusion at 25 µg/mL
T4 construct: Used only to capture the IL4R/IL13R-Fc fusions on streptavidin sensor tips; also called Biotinylated canine IL4
T4 sequence (looked up): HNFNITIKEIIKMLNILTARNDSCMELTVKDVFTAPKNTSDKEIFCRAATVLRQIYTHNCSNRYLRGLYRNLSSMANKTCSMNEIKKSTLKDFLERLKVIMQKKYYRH
Description: (§1) The determine the binding affinity of C1q to canine IgG-B Fc variant 1, a biosensor binding analysis was performed. In this assay, the affinity of C1q to a fusion protein of a canine IL4 receptor ECD and IL13 receptor ECD (IL4R/IL13R) and canine IgG-B Fc wild-type (IL4R/IL13R-canine IgG-B, SEQ ID NO: 95) or to canine IgG-B Fc variant 1 (IL4R/IL13R-canine IgG-B variant 1, SEQ ID NO: 96) was tested. Briefly, canine IL4 was biotinylated. Biotinylated canine IL4 was captured on streptavidin sensor tips. Either IL4R/IL13R-canine IgG-B wild-type (25 ug/mL) or IL4R/IL13R-canine IgG-B variant 1 (25 μg/mL) were complexed to the IL4-bound biosensors. Subsequently, the complex was used to bind human C1q at 250 μg/mL (Catalog No. 204876-1MG; Sigma Aldrich). Then, the ability of human C1q to bind to either complex was measured. Reduced binding between human C1q and IL4R/IL13R-canine IgG-B variant 1 was observed when compared to IL4R/IL13R-canine IgG-B wild-type.

[6] = target: T5, human C1q (Catalog No. 204876-1MG; Sigma Aldrich) (human, UniProt P02745 23-245; P02746 28-253; P02747 29-245); assay: BLI; Fc fusion (25 µg/mL) captured on IL4-bound streptavidin sensors, human C1q at 250 µg/mL
T5 construct: Bought protein
T5 sequence (P02745 23-245 limits assumed, chain 1 of 3): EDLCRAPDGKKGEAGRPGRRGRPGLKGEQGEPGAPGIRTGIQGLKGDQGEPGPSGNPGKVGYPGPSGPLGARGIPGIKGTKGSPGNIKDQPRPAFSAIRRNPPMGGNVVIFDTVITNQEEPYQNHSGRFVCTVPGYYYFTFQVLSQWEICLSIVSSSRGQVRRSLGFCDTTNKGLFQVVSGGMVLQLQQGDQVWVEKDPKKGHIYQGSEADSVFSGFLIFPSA
T5 sequence (P02746 28-253 limits assumed, chain 2 of 3): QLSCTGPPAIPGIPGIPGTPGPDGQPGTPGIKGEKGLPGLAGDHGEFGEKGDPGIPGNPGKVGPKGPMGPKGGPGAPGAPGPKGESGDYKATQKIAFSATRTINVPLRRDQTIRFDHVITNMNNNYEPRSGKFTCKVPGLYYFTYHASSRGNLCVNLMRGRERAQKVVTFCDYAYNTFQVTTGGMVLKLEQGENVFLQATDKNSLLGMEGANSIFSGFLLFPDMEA
T5 sequence (P02747 29-245 limits assumed, chain 3 of 3): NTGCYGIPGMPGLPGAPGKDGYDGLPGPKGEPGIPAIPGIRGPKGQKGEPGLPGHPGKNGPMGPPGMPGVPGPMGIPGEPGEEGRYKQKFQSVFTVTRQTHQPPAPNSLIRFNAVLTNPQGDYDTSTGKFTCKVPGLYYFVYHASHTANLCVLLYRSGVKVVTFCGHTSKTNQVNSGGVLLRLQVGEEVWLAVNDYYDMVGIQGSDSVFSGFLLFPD
Description: as §1

B1: mouse monoclonal antibody Clone A (antibody, IgG1, V domains shown)
VH: QVQLKESGPGLVAPSQSLSITCTISGFSLTSNGVHWVRQSPGKDLEWLVVIWSDGTTTYNSDFKSRLSISKDNSKSQVFLKMNSLQTDDTAMYYCARHYDWGYYYAMDYWGQGTSVTVSS
VL: DVVMTQTPLSLPVSLGDQASISCRSSQSLVHSNGNTYLHWYLQRPGQSPNLLIYKVSNRFSGVPDRFSGSGSGTDFTLKISRVEAEDLGVYFCSQSTHVPFTFGSGTKLEIK
notes: Hybridoma antibody; also called antibody A
Question: With B1 as the binder, how does the “EC50 (ng/mL), H1080 Cell Functional Assay (IL6 secretion)” value [1] read?
Answer: The value was 13 ng/mL.

Question: Does B1 bind (canine IL17F-polyHis [2])?
Answer: Result: no binding (tested: 0.6 µg of target per lane)

B2: mouse monoclonal antibody Clone E (antibody, mouse IgG1, V domains shown)
VH: QVQLKESGPGLVAPSQSLSITCTISGFSLTSNGVHWVRQPPGKGLEWLVVIWSDGTTTYNSALKSRLSISKDNSKSQVFLKMNSLQTDDTAMYYCARHYDRGYYYAMDYWGQGTSVTVSS
VL: DVVMTQTPLSLPVSLGDQASISCRSSQSLVHSNGNTYFHWYLQKPGQSPKLLIYKVSNRFSGVPDRFSGSGSGTDFTLKISRVEAEDLGVYFCSQSTHAPFTFGSGTKLEIK
notes: Hybridoma antibody; also called antibody E
Question: How did the “EC50 (ng/mL), H1080 Cell Functional Assay (IL6 secretion)” value [1] turn out when B2 was run?
Answer: Its value is 40 ng/mL.

Question: Does B2 bind (canine IL17F-polyHis [2])?
Answer: Result: no binding (tested: 0.6 µg of target per lane)

B3: caninized Clone C antibody (caninized Clone C VH with canine IgG-B, caninized Clone C VL with canine kappa constant region) (antibody, V domains shown)
VH: EVQLVESGGGLVKPGGSLRLSCAASGFTFSSYGMSWVRQAPGKRLELVAIINSNGGSTYYPDSVKGRFTFSLDTSKNTLYLQMNSLRAEDTAMYYCVRCHYDYERVFDYWGQGTLVTVSS
VL: DIQMTQSPASVSGSLGDKVSITCKANDHINNWLAWYQQLPGNAPRLLISGSTSLESGVPDRFSGSKSGSSFTLTISGLQPEDFATYYCQQYWSTPFTFGSGTKVEIKR
notes: expressed in CHO-S cells, purified on Protein A
Question: What does the source list for B3?
Answer: Kd (canine IL17F-polyHis [3]): 4.1 nM; Kd (canine IL17A-polyHis): 1.4 nM; IC50, H1080 cell-based canine IL17A neutralization assay (IL6 secretion) [4]: 410 pM

B4: IL4R/IL13R-canine IgG-B wild-type (Fc fusion)
chain: TETQPPVTNLSVSVENLCTVIWTWDPPEGASPNCTLRYFSHFDNKQDKKIAPETHRSKEVPLNERICLQVGSQCSTNESDNPSILVEKCTPPPEGDPESAVTELQCVWHNLSYMKCTWLPGRNTSPDTNYTLYYWHSSLGKILQCEDIYREGQHIGCSFALTNLKDSSFEQHSVQIVVKDNAGKIRPSFNIVPLTSHVKPDPPHIKRLFFQNGNLYVQWKNPQNFYSRCLSYQVEVNNSQTETNDIFYVEEAKCQNSEFEGNLEGTICFMVPGVLPDTLNTVRIRVRTNKLCYEDDKLWSNWSQAMSIGENTDPTGGGSGSGSVKVLHEPSCFSDYISTSVCQWKMDHPTNCSAELRLSYQLDFMGSENHTCVPENREDSVCVCSMPIDDAVEADVYQLDLWAGQQLLWSGSFQPSKHVKPRTPGNLTVHPNISHTWLLMWTNPYPTENHLHSELTYMVNVSNDNDPEDFKVYNVTYMGPTLRLAASTLKSGASYSARVRAWAQTYNSTWSDWSPSTTWLNYYEPKRENGRVPRPPDCPKCPAPEMLGGPSVFIFPPKPKDTLLIARTPEVTCVVVDLDPEDPEVQISWFVDGKQMQTAKTQPREEQFNGTYRVVSVLPIGHQDWLKGKQFTCKVNNKALPSPIERTISKARGQAHQPSVYVLPPSREELSKNTVSLTCLIKDFFPPDIDVEWQSNGQQEPESKYRTTPPQLDEDGSYFLYSKLSVDKSRWQRGDTFICAVMHEALHNHYTQESLSHSPGK
Question: Does B4 bind [5]?
Answer: Result: binds

Question: Does B4 bind [6]?
Answer: Result: binds

B5: IL4R/IL13R-canine IgG-B variant 1 (C1q binding mutant) (Fc fusion)
chain: TETQPPVTNLSVSVENLCTVIWTWDPPEGASPNCTLRYFSHFDNKQDKKIAPETHRSKEVPLNERICLQVGSQCSTNESDNPSILVEKCTPPPEGDPESAVTELQCVWHNLSYMKCTWLPGRNTSPDTNYTLYYWHSSLGKILQCEDIYREGQHIGCSFALTNLKDSSFEQHSVQIVVKDNAGKIRPSFNIVPLTSHVKPDPPHIKRLFFQNGNLYVQWKNPQNFYSRCLSYQVEVNNSQTETNDIFYVEEAKCQNSEFEGNLEGTICFMVPGVLPDTLNTVRIRVRTNKLCYEDDKLWSNWSQAMSIGENTDPTGGGSGSGSVKVLHEPSCFSDYISTSVCQWKMDHPTNCSAELRLSYQLDFMGSENHTCVPENREDSVCVCSMPIDDAVEADVYQLDLWAGQQLLWSGSFQPSKHVKPRTPGNLTVHPNISHTWLLMWTNPYPTENHLHSELTYMVNVSNDNDPEDFKVYNVTYMGPTLRLAASTLKSGASYSARVRAWAQTYNSTWSDWSPSTTWLNYYEPKRENGRVPRPPDCPKCPAPEMLGGPSVFIFPPKPKDTLLIARTPEVTCVVVDLDPEDPEVQISWFVDGKQMQTAKTQPREEQFNGTYRVVSVLPIGHQDWLKGKQFTCRVNNKALPSPIERTISKARGQAHQPSVYVLPPSREELSKNTVSLTCLIKDFFPPDIDVEWQSNGQQEPESKYRTTPPQLDEDGSYFLYSKLSVDKSRWQRGDTFICAVMHEALHNHYTQESLSHSPGK
Question: Which results are given for B5?
Answer: binding result [5]: binds; binding result [6]: binds
